Article doi:10.1101/2024.09.06.611148 (bioRxiv, 2024)

Biological target: Alexa-647-labelled actin (UniProt P68135 1-377, Alexa-647 (Monolith NT Protein Labelling Kit RED-NHS))
Experiment: MST

B1: recombinant HYC2 (GST-HYC2 or HYC2-6XHis) (natural protein)
chain: MDFSVKPSGGSPSPSSSTSSSTPHRFKSVTTPTATAAAVSGFSPSAAADRDPMHSWWESVSKQRSRILSLSSLLSGDSHFEDGDVTPISSLADSDRPALSLLSSRAAYSLISNSLCNPASGSGSDPLCQWLYETYLSSDPPLRLVVLSFFPLLVGMYLSRIHSSDSTSLPSLSGFEAVLLAIYAAEVKARAGKPILVHIPDLSQPSLYHTPRNGVDKSRDSNPTASVGVLSPQLEPQIAVKSTKRASIVGVGLQCYFKEISQMPAWSKLEFCKFSASWAGQDCDCKEKIDEDEDKVLALTNGFGDSSSFNGSSGRSLEIEEDFDRLAIRENEEQLSSNGGGGGVGRGVRIPLPWELFQPTLRILGHCLLSPLNTEDVKDAASNAVRSLYARASHDLNPQAILATRSLVNLDTSARTSGKTVAAETVNGSSNVNTPSKAKKPEILLASK
  Kd: 0.33 ± 0.08 µM
